Assay results from patent US20050147610A1.

Key:
[1] = biological target: (4C/A)-huIL-18 (4C/A mutant of mature human IL-18) (human) (UniProt Q14116); assay: Biacore
[2] = biological target: NEM-huIL-18 (recombinant mature human IL-18 treated with N-ethyl maleiamide) (human) (UniProt Q14116); assay: Biacore
[3] = biological target: 125I labeled rhu-IL-18 (human) (UniProt Q14116); assay: RBA: inhibition of 125I-rhu-IL-18 binding to IL-18Rαβ on KG-1 cells
[4] = biological target: (4C/A)-huIL-18 (4C/A mutant of mature human IL-18) (human) (UniProt Q14116); assay: BIACORE
[5] = biological target: recombinant mature human IL-18 (preparation not specified) (human) (UniProt Q14116); assay: cell-based or functional assay
[6] = biological target: natural human IL-18 (endogenous, human whole blood) (human) (UniProt Q14116); assay: cell-based or functional assay
[7] = biological target: NEM-huIL-18 (recombinant mature human IL-18 treated with N-ethyl maleiamide) (human) (UniProt Q14116); assay: cell-based or functional assay

Row | Kd [1] [nM] | Kd [2] [nM] | IC50 [3] [nM] | Kd [4] [nM] | koff [4] [s⁻¹] | kon [4] [M⁻¹ s⁻¹] | KG-1, Neutralization Potency in vitro (IC50, nM) [5] [nM] | WBA, Neutralization Potency in vitro (IC50, nM) [6] [nM] | KG-1 Assays (IC50, M), NEM-rhuIL-18 [7] [M] | Binder
1 | 0.2 | 0.2 | > 300 | 0.55 | 0.00011 | 190000 | 0.2 | 3 |  | Murine anti-human IL-18 mAb (125-2H) (antibody, from another filing, V domains shown) VH: EIQLQQSGPELVKPGASVKVSCKASGYSFTDYFIYWVKQSHGKSLEWIGDIDPYNGDTSYNQKFRDKATLTVDQSSTTAFMHLNSLTSEDSAVYFCARGLRFWGQGTLVTVSA VL: DIQMTQSPSSLSASLGERVSLTCRASQDIGSKLYWLQQEPDGTFKRLIYATSSLDSGVPKRFSGSRSGSDYSLTISSLESEDFVDYYCLQYASSPYTFGGGTKLAIKR
2 |  |  |  |  |  |  |  |  | 7e-09 | 268 (antibody, V domains shown) VH: ZVQLVESGGGVVQPGRSLRLSCAASGFTFRNYGLHWVRQAPGKGLEWVAVIWYDGSNKYYADSVKGRFTISRDNSKNTLYLQMNSLRAEDTAVYYCARESYYYYGMDVWGQGTTVTVSS VL: EIVMTQSPATLSVSPGERATLSCRASQSFNSNLVWYQQKPGQAPRLLIYGASTRATGIPARFSGSGSGTEFTLTISSLQSEDFAVYYCQQYNNWTWTFGQGTKVEIKR
